B1: TCR5 (TCR, V domains shown)
Valpha: KNEVEQSPQNLTAQEGEFITINCSYSVGISALHWLQQHPGGGIVSLFMLSSGKKKHGRLIATINIQEKHSSLHITASHPRDSAVYICAPGGNQFYFGTGTSLTVIP
Vbeta: DAGITQSPRYKITETGRQVTLMCHQTWSHSYMFWYRQDLGHGLRLIYYSAAADITDKGEVPDGYVVSRSKTENFPLTLESATRSQTSVYFCASSGSNQPQHFGDGTRLSIL
B2: TCR6 (TCR, V domains shown)
Valpha: AQTVTQSQPEMSVQEAETVTLSCTYDTSENNYYLFWYKQPPSRQMILVIRQEAYKQQNATENRFSVNFQKAAKSFSLKISDSQLGDTAMYFCAFFNAGKSTFGDGTTLTVKP
Vbeta: EAGVAQSPRYKIIEKRQSVAFWCNPISGHATLYWYQQILGQGPKLLIQFQNNGVVDDSQLPKDRFSAERLKGVDSTLKIQPAKLEDSAVYLCASTVGGGPYGYTFGSGTRLTVV
B3: TCR7 (TCR, V domains shown)
Valpha: GQNIDQPTEMTATEGAIVQINCTYQTSGFNGLFWYQQHAGEAPTFLSYNVLDGLEEKGRFSSFLSRSKGYSYLLLKELQMKDSASYLCAVRRLGGYQKVTFGTGTKLQVIP
Vbeta: GAGVSQSPSNKVTEKGKDVELRCDPISGHTALYWYRQRLGQGLEFLIYFQGNSAPDKSGLPSDRFSAERTGESVSTLTIQRTQQEDSAVYLCASSLVTGSSYNEQFFGPGTRLTVL
B4: TCR8 (TCR, V domains shown)
Valpha: AQKITQTQPGMFVQEKEAVTLDCTYDTSDQSYGLFWYKQPSSGEMIFLIYQGSYDEQNATEGRYSLNFQKARKSANLVISASQLGDSAMYFCAMRGPTSYGKLTFGQGTILTVHP
Vbeta: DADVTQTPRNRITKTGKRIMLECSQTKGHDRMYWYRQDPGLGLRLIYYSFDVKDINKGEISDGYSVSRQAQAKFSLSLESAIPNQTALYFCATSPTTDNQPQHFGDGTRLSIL
B5: TCR10 (TCR, V domains shown)
Valpha: AQSVAQPEDQVNVAEGNPLTVKCTYSVSGNPYLFWYVQYPNRGLQFLLKYITGDNLVKGSYGFEAEFNKSQTSFHLKKPSALVSDSALYFCAVRDNARLMFGDGTQLVVKP
Vbeta: SAVISQKPSRDICQRGTSLTIQCQVDSQVTMMFWYRQQPGQSLTLIATANQGSEATYESGFVIDKFPISRPNLTFSTLTVSNMSPEDSSIYLCSVGPSGHTGYTFGSGTRLTVV
B6: TCR11 (TCR, V domains shown)
Valpha: GEDVEQSLFLSVREGDSSVINCTYTDSSSTYLYWYKQEPGAGLQLLTYIFSNMDMKQDQRLTVLLNKKDKHLSLRIADTQTGDSAIYFCAEKSITSYDKVIFGPGTSLSVIP
Vbeta: DVKVTQSSRYLVKRTGEKVFLECVQDMDHENMFWYRQDPGLGLRLIYFSYDVKMKEKGDIPEGYSVSREKKERFSLILESASTNQTSMYLCASTRRGTYGYTFGSGTRLTVV

Target: T1, MAGE-B2 peptide on HLA-A*02:01 (human)
T1 peptide: GVYDGEEHSV
Assay: multimer staining

Binding result, recognises:
B1
B2
B3
B4
B5
B6
